T1: MdAGO4-1 without PAZ domain (Malus domestica? (apple), UniProt A0A498JG28 46-274+435-911, internal_change)
T1 sequence: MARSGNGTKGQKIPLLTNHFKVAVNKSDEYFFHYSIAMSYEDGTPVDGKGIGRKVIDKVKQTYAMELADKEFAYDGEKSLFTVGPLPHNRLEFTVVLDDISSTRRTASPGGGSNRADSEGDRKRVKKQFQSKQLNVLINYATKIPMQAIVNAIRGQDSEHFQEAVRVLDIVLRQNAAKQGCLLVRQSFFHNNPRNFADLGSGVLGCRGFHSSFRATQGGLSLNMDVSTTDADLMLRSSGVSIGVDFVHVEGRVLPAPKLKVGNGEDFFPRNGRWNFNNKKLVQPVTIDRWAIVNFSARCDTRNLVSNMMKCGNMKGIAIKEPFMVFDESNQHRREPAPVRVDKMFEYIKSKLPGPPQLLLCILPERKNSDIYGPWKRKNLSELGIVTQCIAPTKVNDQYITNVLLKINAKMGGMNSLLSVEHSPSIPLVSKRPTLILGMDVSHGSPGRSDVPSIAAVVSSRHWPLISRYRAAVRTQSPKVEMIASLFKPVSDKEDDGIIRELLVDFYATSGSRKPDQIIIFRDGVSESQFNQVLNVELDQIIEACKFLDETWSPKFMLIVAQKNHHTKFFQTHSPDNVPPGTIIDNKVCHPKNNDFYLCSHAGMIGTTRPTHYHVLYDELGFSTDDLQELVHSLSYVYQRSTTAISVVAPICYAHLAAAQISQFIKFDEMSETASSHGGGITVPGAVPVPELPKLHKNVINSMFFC

T2: MdAGO4-1 (Malus domestica? (apple), UniProt A0A498JG28 46-911)
T2 sequence: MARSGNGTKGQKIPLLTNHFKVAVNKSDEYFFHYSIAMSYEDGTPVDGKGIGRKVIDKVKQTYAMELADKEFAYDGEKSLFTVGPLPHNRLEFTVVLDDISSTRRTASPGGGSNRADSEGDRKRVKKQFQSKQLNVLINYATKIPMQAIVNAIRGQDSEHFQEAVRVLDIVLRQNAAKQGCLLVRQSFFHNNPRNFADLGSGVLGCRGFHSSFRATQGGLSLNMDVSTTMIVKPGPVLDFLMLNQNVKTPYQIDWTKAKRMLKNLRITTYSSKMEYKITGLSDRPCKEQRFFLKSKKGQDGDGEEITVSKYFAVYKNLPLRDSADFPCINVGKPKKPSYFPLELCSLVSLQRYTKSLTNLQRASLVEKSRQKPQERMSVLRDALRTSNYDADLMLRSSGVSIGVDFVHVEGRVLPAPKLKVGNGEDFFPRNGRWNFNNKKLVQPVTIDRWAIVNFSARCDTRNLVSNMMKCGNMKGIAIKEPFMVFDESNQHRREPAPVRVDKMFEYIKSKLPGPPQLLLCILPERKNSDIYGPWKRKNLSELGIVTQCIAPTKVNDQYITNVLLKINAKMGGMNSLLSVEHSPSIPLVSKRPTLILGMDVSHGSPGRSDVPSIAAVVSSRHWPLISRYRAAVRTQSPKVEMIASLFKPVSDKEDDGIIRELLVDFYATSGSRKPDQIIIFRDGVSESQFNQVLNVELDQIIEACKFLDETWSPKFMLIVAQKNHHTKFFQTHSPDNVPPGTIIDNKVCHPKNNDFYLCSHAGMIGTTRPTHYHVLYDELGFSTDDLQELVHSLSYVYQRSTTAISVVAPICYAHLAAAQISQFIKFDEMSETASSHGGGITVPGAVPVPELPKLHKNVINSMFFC

B1: MdMYB1 probe2 (dsDNA)
DNA 1: TGTCAGTGTTTGCTTCTGTGGATATCAGACATGCACGTCACTGGCCTT
DNA 2: AAGGCCAGTGACGTGCATGTCTGATATCCACAGAAGCAAACACTGACA
B2: 2-m3 (m3 region … not intact) (dsDNA)
DNA 1: TGTCAGTGTTTGCTTCTGTGATGCACGTCACTGGCCTT
DNA 2: AAGGCCAGTGACGTGCATCACAGAAGCAAACACTGACA
B3: 2-m5 (dsDNA)
DNA 1: TGTCAGTGTTTGCTTCTGTGGATATCAGACATGCACGTCA
DNA 2: TGACGTGCATGTCTGATATCCACAGAAGCAAACACTGACA
B4: 2-m4 (dsDNA)
DNA 1: TGTCAGTGTTTGCTTCTGTGGATATCAGACCTGGCCTT
DNA 2: AAGGCCAGGTCTGATATCCACAGAAGCAAACACTGACA
B5: 2-m2 (dsDNA)
DNA 1: TGTCAGTGTTGATATCAGACATGCACGTCACTGGCCTT
DNA 2: AAGGCCAGTGACGTGCATGTCTGATATCAACACTGACA
B6: 2-m1 (probe2 without m1 region) (dsDNA)
DNA 1: TGCTTCTGTGGATATCAGACATGCACGTCACTGGCCTT
DNA 2: AAGGCCAGTGACGTGCATGTCTGATATCCACAGAAGCA
B7: MdGST probe (dsDNA)
DNA 1: TTTTTTATTAAATAAAAAAAGATATCATGCGACAAACATTTATTAAATTG
DNA 2: CAATTTAATAAATGTTTGTCGCATGATATCTTTTTTTATTTAATAAAAAA
B8: MdFLS probe (dsDNA)
DNA 1: GTAAAGGGAGTGTGACCATAATATCAGATACACAAACGTCCAAAGCCC
DNA 2: GGGCTTTGGACGTTTGTGTATCTGATATTATGGTCACACTCCCTTTAC

Molecular target: T1, MdAGO4-1 without PAZ domain
Assay: EMSA; LightShift Chemiluminescent EMSA Kit (Thermo); buffer, salt, pH and temperature not stated
Conditions: protein: recombinant

**Q.** Does B1 bind?
**A.** Result: binds

Molecular target: T2, MdAGO4-1
Assay: as above
Conditions: protein: recombinant; tags: His (pET32a)

**Q.** Does B2 bind?
**A.** Result: no binding

**Q.** Does B3 bind?
**A.** Result: binds

**Q.** Does B4 bind?
**A.** Result: binds

**Q.** Does B5 bind?
**A.** Result: binds

**Q.** Does B1 bind?
**A.** Result: binds

**Q.** Does B6 bind?
**A.** Result: binds

Same assay, conditions: protein: recombinant; tags: His (pET32a); blunt

**Q.** Does B7 bind?
**A.** Result: no binding

**Q.** Does B8 bind?
**A.** Result: binds

Reference: publication PMC7336386, “Methylation of MdMYB1 locus mediated by RdDM pathway regulates anthocyanin biosynthesis in apple”
